In US20110165660A1, “ENGINEERED MICROORGANISMS WITH ENHANCED FERMENTATION ACTIVITY” (VERDEZYNE, INC., priority 2009, published 2011):

Legend:
[1] = system: xylose; test: In vitro xylose isomerase activity assay on soluble whole cell extract (sorbitol dehydrogenase/NADH coupled, A340; Km, specific activity); assay type: biochemical, Saccharomyces cerevisiae
Method: […] Louis, Mo.), and about 2 U sorbitol dehydrogenase (Roche) at about 30° C. […] A Beckman DU-800 was utilized with an Enzyme Mechanism software package (Beckman Coulter, Inc.), and the change in the A340 was monitored for 2-3 minutes.
Approximately 20 μg of soluble whole cell extract from each transformed cell line, prepared using Y-PER plus reagent as described above, was incubated in a solution containing about 100 mM Tris, pH 7.5, 10 mM MgCl ? 2, 0.15 mM NADH (Sigma, St. Louis, Mo.), and 2 U Sorbitol Dehydrogenase (SDH) (Roche, Indianapolis, Ind.) at about 30° C. […] A Beckman DU-800 spectrophotometer was utilized with an Enzyme Mechanism software package (Beckman Coulter, Inc, Brea, Calif.), and the change in the A340 was monitored for 2-3 minutes.
Approximately 20 μg of soluble whole cell extract from each transformed cell line was prepared using Y-PER plus reagent as described above was incubated in a solution containing about 100 mM Tris, pH 7.5, 10 mM MgCl2, 0.15 mM NADH (Sigma, St. Louis, Mo.), and 2 U sorbitol dehydrogenase (SDH) (Roche, Indianapolis, Ind.) at about 30° C. […] A Beckman DU-800 spectrophotometer was utilized with an Enzyme Mechanism software package (Beckman Coulter, Inc, Brea, Calif.), and the change in the A340 was monitored for 2-3 minutes.
Approximately 20 μg of soluble whole cell extract from each transformed cell line was prepared using Y-PER plus reagent as described above was incubated in a solution containing about 100 mM Tris, pH 7.5, 10 mM MgCl ? 2, 0.15 mM NADH (Sigma, St. Louis, Mo.), and 2 U Sorbitol Dehydrogenase (SDH) (Roche, Indianapolis, Ind.) at about 30° C. […] A Beckman DU-800 spectrophotometer was utilized with an Enzyme Mechanism software package (Beckman Coulter, Inc, Brea, Calif.), and the change in the A340 was monitored for 2-3 minutes.

[2] = system: xylose isomerase activity; test: Heterologous xylose isomerase expression in engineered yeast (active yes/no); conditions: xylose isomerase of the donor organism expressed in engineered yeast (S. cerevisiae)
[3] = Western blot (anti-6xHis) of EDD and EDA expression in yeast, soluble/insoluble extract; parameters: species or system Saccharomyces cerevisiae; conditions: C-terminal HIS tag, S. cerevisiae BY4742; total crude and solubilized extract; FIGS. 13A and 13B
Method: Transformation of the p426GPD plasmids containing an edd or an eda variant gene into yeast strain BY4742 was accomplished using the Zymo Research frozen-EZ yeast transformation II kit according to the manufacturer's protocol. The transformed BY4742 cells were selected by growth on a synthetic dextrose medium (SD) (0.67% yeast nitrogen base-2% dextrose) containing complete amino acids minus uracil (Krackeler Scientific Inc). Plates were incubated at about 30° C. for about 48 hours. Transformant colonies for each edd and eda variant were inoculated onto 5 ml of SD minus uracil medium and cells were grown at about 30° C. and shaken at about 250 rpm for about 24 hours. Cells were harvested by centrifugation at 1000×g for about 5 minutes, after which protein crude extract was prepared with Y-PER Plus (Thermo Scientific) according to the manufacturer's instructions. Whole cell extract protein concentrations were determined using the Coomassie Plus Protein Assay (Thermo Scientific) according to the manufacturer's directions. For each edd and eda variant His-tagged construct, about 10 μg of soluble and insoluble fractions were loaded on 4-12% NuPAGE Novex Bis-Tris protein gels (Invitrogen) and proteins were analyzed by western using anti-(H is)6 (SEQ ID NO: 138) mouse monoclonal antibody (Abcam) and HRP-conjugated secondary antibody (Abcam). […]

[4] = system: 6-phosphogluconate; test: EDA activity assay: S. cerevisiae EDA extracts with saturating E. coli EDD extract, LDH/NADH coupled; assay type: biochemical, Saccharomyces cerevisiae
Method: EDA extracts were prepared using the following protocol.
Grow 5 ml LB-Kan preps of BF1055 (BL21/DE3 with pET26b empty vector) and BF1706 (BL21DE3 with pET26b+E. coli EDD).
Grow 50 ml LB-Kan prep of BF1055, 2% (v/v) inoculate.
Grow 50 ml prep of BF1706 using Novagen's Overnight Express (46.45 ml LB-Kan, 1 ml solution 1, 2.5 ml solution 2, 50 μl solution 3, 5 μl of 1M MnCl2, 50 μl of 0.5 M FeCl2), 2% (v/v) inoculate.
Inoculate to OD600 of 0.2.
EDD extractions (adapted from Chemyan et al, Protein Science 16:2368-2377, 2007): • 1) Pellet cells in 50 ml conical tubes, 4° C., 3,000 rpm, 10 mins, discard supernatant. • 2) Resuspend in 2 ml degassed PDGH buffer (20 mM MES pH 6.5, 30 mM NaCl, 5 mM MnCl2, 0.5 mM FeCl2, 10 mM 2-mercaptoethanol, 10 mM cysteine, sparged with nitrogen gas). Move to hungate tube. • 3) Add 0.1% Triton X-100, 10 ng/ml DNase, 10 μg/ml PMSF, 10 μg/ml TAME (Nα-(p-toluene sulfonyl)-L-arginine methyl ester), 100 μg/ml lysozyme. • 4) Sparge hungate tube with nitrogen gas, cap and seal. […]
Each reaction contains 50 mM Tris-HCl, pH 7, 10 mM MgCl2, 0.15 mM NADH, 15 μg LDH, saturating amounts of EDD determined empirically (usually ˜100 μg), 1-50 μg EDA (depending on level of activity), and 1 mM 6-phosphogluconate. Reactions are started by the addition of 6-phosphogluconate and monitored for 5 mins at 30° C.

With “Piromyces: xylose isomerase from Piromyces strain E2 (SEQ ID NO: 35)” the “Specific Activity” value ([1]; soluble whole cell extract, pH 7.5, 30° C.) was 2.02 µmol/min/mg and the “Active? (yes/no)” value [2] was “Yes”.

B1: E. coli EDA: 2-keto-3-deoxygluconate-6-phosphate aldolase (eda) from E. coli expressed in yeast (protein, UniProt P0A955 1-213, looked up)
KHG/KDPG aldolase: MKNWKTSAESILTTGPVVPVIVVKKLEHAVPMAKALVAGGVRVLEVTLRTECAVDAIRAIAKEVPEAIVGAGTVLNPQQLAEVTEAGAQFAISPGLTEPLLKAATEGTIPLIPGISTVSELMLGMDYGLKEFKFFPAEANGGVKALQAIAGPFSQVRFCPTGGISPANYRDYLALKSVLCIGGSWLVPADALEAGDYDRITKLAREAVEGAKL
With B1 the “expression and solubility (western)” value [3] was “expressed and soluble”, the “EDA activity relative to the EDA from P. aeruginosa” value ([4]; EDA expressed in S. cerevisiae, saturating E. coli EDD) was “approximately 16 fold” and the EDA activity ranking ([4]; repeat: 100 μg EDD and 25 μg EDA cell lysates (5 μg E. coli EDA), FIG. 24) was “most active”.

B2: R. flavefaciens, FD-1 XI: xylose isomerase from R. flavefaciens FD-1 (SEQ ID NO: 110) expressed in S. cerevisiae (protein, listed as Ruminococcus flavefaciens)
chain: MEFFKNISKIPYEGKDSTNPLAFKYYNPDEVIDGKKMRDIMKFALSWWHTMGGDGTDMFGCGTADKTWGENDPAARAKAKVDAAFEIMQKLSIDYFCFHDRDLSPEYGSLKDTNAQLDIVTDYIKAKQAETGLKCLWGTAKCFDHPRFMHGAGTSPSADVFAFSAAQIKKALESTVKLGGTGYVFWGGREGYETLLNTNMGLELDNMARLMKMAVEYGRSIGFKGDFYIEPKPKEPTKHQYDFDTATVLGFLRKYGLDKDFKMNIEANHATLAQHTFQHELCVARTNGAFGSIDANQGDPLLGWDTDQFPTNIYDTTMCMYEVIKAGGFTNGGLNFDAKARRGSFTPEDIFYSYIAGMDAFALGYKAASKLIADGRIDSFISDRYASWSEGIGLDIISGKADMAALEKYALEKGEVTDSISSGRQELLESIVNNVIFNL
With B2 the “activity (slope) at saturating xylose” value ([1]; 100 μg total soluble crude extract, 500 mM xylose, FIG. 25) was “highest activity of the candidates tested” and the “specific activity relative to native XI control” value ([1]; xylose concentrations between 40 and 500 nM) was “greater than 2 fold”.

B3: PAO1 EDD: phosphogluconate dehydratase (edd) from P. aeruginosa PAO1 (SEQ ID NO: 70) (protein, listed as Pseudomonas aeruginosa)
chain: MHPRVLEVTRRIQARSAATRQRYLEMVRAAASKGPHRGTLPCGNLAHGVAACGESDKQTLRLMNQANVAIVSAYNDMLSAHQPFERFPGLIKQALHEIGSVGQFAGGVPAMCDGVTQGEPGMELSLASRDVIAMSTAIALSHNMFDAALCLGVCDKIVPGLLIGSLRFGHLPTVFVPAGPMPTGISNKEKAAVRQLFAEGKATREELLASEMASYHAPGTCTFYGTANTNQLLVEVMGLHLPGASFVNPNTPLRDELTREAARQASRLTPENGNYVPMAEIVDEKAIVNSVVALLATGGSTNHTLHLLAIAQAAGIQLTWQDMSELSHVVPTLARIYPNGQADINHFQAAGGMSFLIRQLLDGGLLHEDVQTVAGPGLRRYTREPFLEDGRLVWREGPERSLDEAILRPLDKPFSAEGGLRLMEGNLGRGVMKVSAVAPEHQVVEAPVRIFHDQASLAAAFKAGELERDLVAVVRFQGPRANGMPELHKLTPFLGVLQDRGFKVALVTDGRMSGASGKVPAAIHVSPEAIAGGPLARLRDGDRVRVDGVNGELRVLVDDAEWQARSLEPAPQDGNLGCGRELFAFMRNAMSSAEEGACSFTESLNGWR
In the case of B3, the “expression and solubility (western)” value [3] is reported as “expressed and soluble”.
